# Source: PMC9482650, “Quantitative fragmentomics allow affinity mapping of interactomes” (Nature Communications, 2022)
# T1: APBA2_1, Q99767
# T1 sequence (Q99767 563-664, limits assumed, looked up): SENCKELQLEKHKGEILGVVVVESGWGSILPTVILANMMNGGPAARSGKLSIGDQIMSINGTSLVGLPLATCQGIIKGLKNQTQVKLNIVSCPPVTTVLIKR
# T2: APBA3_1, O96018
# T2 sequence (O96018 389-490, limits assumed, looked up): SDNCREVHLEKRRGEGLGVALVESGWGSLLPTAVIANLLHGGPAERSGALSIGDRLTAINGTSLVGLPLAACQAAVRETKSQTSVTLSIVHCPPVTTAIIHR
# T3: GRIP1_7, Q9Y3R0
# T3 sequence (Q9Y3R0 999-1096, limits assumed, looked up): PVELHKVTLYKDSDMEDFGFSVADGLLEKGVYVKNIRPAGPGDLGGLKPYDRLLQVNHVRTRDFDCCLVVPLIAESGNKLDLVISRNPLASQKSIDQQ
# T4: HTRA4, P83105
# T4 sequence (P83105 378-476, limits assumed, looked up): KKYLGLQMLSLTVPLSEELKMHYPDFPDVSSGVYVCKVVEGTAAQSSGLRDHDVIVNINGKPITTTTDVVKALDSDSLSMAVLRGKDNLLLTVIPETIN
# T5: LNX2_3, Q8N448
# T5 sequence (Q8N448 463-564, limits assumed, looked up): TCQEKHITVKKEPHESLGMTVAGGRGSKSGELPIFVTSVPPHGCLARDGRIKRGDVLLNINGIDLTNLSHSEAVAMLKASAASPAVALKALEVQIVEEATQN
# T6: MPP6, Q9NZW5
# T6 sequence (Q9NZW5 125-219, limits assumed, looked up): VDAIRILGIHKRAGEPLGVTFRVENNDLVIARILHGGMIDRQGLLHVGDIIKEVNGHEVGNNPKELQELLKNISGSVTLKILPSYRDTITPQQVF
# T7: PDZD2_2, O15018
# T7 sequence (O15018 329-429, limits assumed, looked up): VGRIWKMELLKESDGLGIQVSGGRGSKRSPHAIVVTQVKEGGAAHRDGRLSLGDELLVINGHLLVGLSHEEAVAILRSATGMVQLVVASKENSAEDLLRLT
# T8: RADIL, Q96JH8
# T8 sequence (Q96JH8 971-1071, limits assumed, looked up): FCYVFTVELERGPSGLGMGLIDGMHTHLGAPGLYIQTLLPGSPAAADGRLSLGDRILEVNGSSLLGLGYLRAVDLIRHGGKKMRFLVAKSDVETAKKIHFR
# T9: RAPGEF6, Q8TEU7
# T9 sequence (Q8TEU7 525-625, limits assumed, looked up): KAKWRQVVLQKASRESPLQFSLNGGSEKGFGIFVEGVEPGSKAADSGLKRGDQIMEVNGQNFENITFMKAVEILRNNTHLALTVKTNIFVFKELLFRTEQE
# T10: SNTB1, Q13884
# T10 sequence (Q13884 107-205, limits assumed, looked up): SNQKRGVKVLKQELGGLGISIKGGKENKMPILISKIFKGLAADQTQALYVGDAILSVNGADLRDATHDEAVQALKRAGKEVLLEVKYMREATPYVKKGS
# T11: SNTG1, Q9NSN8
# T11 sequence (Q9NSN8 52-150, limits assumed, looked up): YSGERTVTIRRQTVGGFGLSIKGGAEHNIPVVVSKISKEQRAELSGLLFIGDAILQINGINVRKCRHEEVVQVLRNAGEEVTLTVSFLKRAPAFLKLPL
# T12: TIAM2, Q8IVF5
# T12 sequence (Q8IVF5 885-986, limits assumed, looked up): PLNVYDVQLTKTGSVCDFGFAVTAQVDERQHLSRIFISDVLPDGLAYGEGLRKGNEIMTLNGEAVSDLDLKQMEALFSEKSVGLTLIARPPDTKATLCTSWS
# Target: T1, APBA2_1, Q99767
# Experiment: holdup assay
# Set-up: key: below the threshold = too weak to quantify, mostly under pKd 3.1 to 4
# Settings: plain residues with an end cap or a label only (N-terminal biotin on a linker: ado-ado)
row,Binder,pKd
1,"TASPAKETSF [SLC2A7, Q6PXP3]",below the threshold
2,"LKVPPEERLI [CRB2, Q5IJ48]",below the threshold

# Target: T2, APBA3_1, O96018
# Experiment: holdup assay
# Set-up: key: below the threshold = too weak to quantify, mostly under pKd 3.1 to 4
# Settings: plain residues with an end cap or a label only (N-terminal biotin on a linker: ado-ado)
row,Binder,pKd
1,"TASPAKETSF [SLC2A7, Q6PXP3]",below the threshold
2,"LKVPPEERLI [CRB2, Q5IJ48]",below the threshold

# Target: DLG1_1, Q12959
# Experiment: holdup assay
# Set-up: key: below the threshold = too weak to quantify, mostly under pKd 3.1 to 4
# Settings: plain residues with an end cap or a label only (N-terminal biotin on a linker: ado-ado)
row,Binder,pKd
1,"TASPAKETSF [SLC2A7, Q6PXP3]",below the threshold
2,"LKVPPEERLI [CRB2, Q5IJ48]",below the threshold

# Target: DLG4_1, P78352
# Experiment: holdup assay
# Set-up: key: below the threshold = too weak to quantify, mostly under pKd 3.1 to 4
# Settings: plain residues with an end cap or a label only (N-terminal biotin on a linker: ado-ado)
# Chain of DLG4_1, P78352 (P78352 62-152): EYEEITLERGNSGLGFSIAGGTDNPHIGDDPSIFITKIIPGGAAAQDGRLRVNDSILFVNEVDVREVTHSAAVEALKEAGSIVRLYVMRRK
row,Binder,pKd
1,"TASPAKETSF [SLC2A7, Q6PXP3]",below the threshold
2,"LKVPPEERLI [CRB2, Q5IJ48]",below the threshold

# Target: DLG5_1, Q8TDM6
# Experiment: holdup assay
# Set-up: key: below the threshold = too weak to quantify, mostly under pKd 3.1 to 4
# Settings: plain residues with an end cap or a label only (N-terminal biotin on a linker: ado-ado)
# Chain of DLG5_1, Q8TDM6 (Q8TDM6 617-713): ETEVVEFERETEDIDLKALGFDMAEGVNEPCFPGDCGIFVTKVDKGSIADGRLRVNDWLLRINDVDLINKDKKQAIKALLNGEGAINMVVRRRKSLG
row,Binder,pKd
1,"TASPAKETSF [SLC2A7, Q6PXP3]",below the threshold
2,"LKVPPEERLI [CRB2, Q5IJ48]",below the threshold

# Target: FRMPD2_2, Q68DX3
# Experiment: holdup assay
# Set-up: key: below the threshold = too weak to quantify, mostly under pKd 3.1 to 4
# Settings: plain residues with an end cap or a label only (N-terminal biotin on a linker: ado-ado)
# Chain of FRMPD2_2, Q68DX3 (Q68DX3 944-1038): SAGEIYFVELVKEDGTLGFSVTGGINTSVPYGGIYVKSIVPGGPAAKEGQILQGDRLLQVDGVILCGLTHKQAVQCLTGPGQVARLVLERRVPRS
row,Binder,pKd
1,"TASPAKETSF [SLC2A7, Q6PXP3]",below the threshold
2,"LKVPPEERLI [CRB2, Q5IJ48]",below the threshold

# Target: T3, GRIP1_7, Q9Y3R0
# Experiment: holdup assay
# Set-up: key: below the threshold = too weak to quantify, mostly under pKd 3.1 to 4
# Settings: plain residues with an end cap or a label only (N-terminal biotin on a linker: ado-ado)
row,Binder,pKd
1,"TASPAKETSF [SLC2A7, Q6PXP3]",below the threshold
2,"LKVPPEERLI [CRB2, Q5IJ48]",below the threshold

# Target: GRIP2_4, Q9C0E4
# Experiment: holdup assay
# Set-up: key: below the threshold = too weak to quantify, mostly under pKd 3.1 to 4
# Settings: plain residues with an end cap or a label only (N-terminal biotin on a linker: ado-ado)
# Chain of GRIP2_4, Q9C0E4 (Q9C0E4 446-548): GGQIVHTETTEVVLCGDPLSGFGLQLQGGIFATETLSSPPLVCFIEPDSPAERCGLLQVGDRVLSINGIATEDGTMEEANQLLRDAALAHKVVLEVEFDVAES
row,Binder,pKd
1,"TASPAKETSF [SLC2A7, Q6PXP3]",below the threshold
2,"LKVPPEERLI [CRB2, Q5IJ48]",below the threshold

# Target: GRIP2_5, Q9C0E4
# Experiment: holdup assay
# Set-up: key: below the threshold = too weak to quantify, mostly under pKd 3.1 to 4
# Settings: plain residues with an end cap or a label only (N-terminal biotin on a linker: ado-ado)
# Chain of GRIP2_5, Q9C0E4 (Q9C0E4 544-642): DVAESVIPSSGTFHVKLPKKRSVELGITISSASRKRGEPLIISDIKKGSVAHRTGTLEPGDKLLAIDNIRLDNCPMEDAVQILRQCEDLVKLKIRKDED
row,Binder,pKd
1,"TASPAKETSF [SLC2A7, Q6PXP3]",below the threshold
2,"LKVPPEERLI [CRB2, Q5IJ48]",below the threshold

# Target: GRIP2_6, Q9C0E4
# Experiment: holdup assay
# Set-up: key: below the threshold = too weak to quantify, mostly under pKd 3.1 to 4
# Settings: plain residues with an end cap or a label only (N-terminal biotin on a linker: ado-ado)
# Chain of GRIP2_6, Q9C0E4 (Q9C0E4 648-740): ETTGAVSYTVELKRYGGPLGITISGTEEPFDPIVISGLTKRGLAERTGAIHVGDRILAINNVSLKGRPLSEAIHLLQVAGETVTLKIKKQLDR
row,Binder,pKd
1,"TASPAKETSF [SLC2A7, Q6PXP3]",below the threshold
2,"LKVPPEERLI [CRB2, Q5IJ48]",below the threshold

# Target: T4, HTRA4, P83105
# Experiment: holdup assay
# Set-up: key: below the threshold = too weak to quantify, mostly under pKd 3.1 to 4
# Settings: plain residues with an end cap or a label only (N-terminal biotin on a linker: ado-ado)
row,Binder,pKd
1,"TASPAKETSF [SLC2A7, Q6PXP3]",below the threshold
2,"LKVPPEERLI [CRB2, Q5IJ48]",below the threshold

# Target: Inadl_2, Q8NI35
# Experiment: holdup assay
# Set-up: key: below the threshold = too weak to quantify, mostly under pKd 3.1 to 4
# Settings: plain residues with an end cap or a label only (N-terminal biotin on a linker: ado-ado)
# Chain of Inadl_2, Q8NI35 (Q8NI35 238-335): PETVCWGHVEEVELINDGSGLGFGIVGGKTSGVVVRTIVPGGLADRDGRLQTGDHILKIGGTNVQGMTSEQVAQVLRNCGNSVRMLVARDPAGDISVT
row,Binder,pKd
1,"TASPAKETSF [SLC2A7, Q6PXP3]",below the threshold
2,"LKVPPEERLI [CRB2, Q5IJ48]",below the threshold

# Target: Inadl_3, Q8NI35
# Experiment: holdup assay
# Set-up: key: below the threshold = too weak to quantify, mostly under pKd 3.1 to 4
# Settings: plain residues with an end cap or a label only (N-terminal biotin on a linker: ado-ado)
# Chain of Inadl_3, Q8NI35 (Q8NI35 359-469): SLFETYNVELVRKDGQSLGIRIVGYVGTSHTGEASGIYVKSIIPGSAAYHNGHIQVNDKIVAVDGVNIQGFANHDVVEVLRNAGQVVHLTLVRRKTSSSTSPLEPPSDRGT
row,Binder,pKd
1,"TASPAKETSF [SLC2A7, Q6PXP3]",below the threshold
2,"LKVPPEERLI [CRB2, Q5IJ48]",3.6

# Target: Inadl_5, Q8NI35
# Experiment: holdup assay
# Set-up: key: below the threshold = too weak to quantify, mostly under pKd 3.1 to 4
# Settings: plain residues with an end cap or a label only (N-terminal biotin on a linker: ado-ado)
# Chain of Inadl_5, Q8NI35 (Q8NI35 673-780): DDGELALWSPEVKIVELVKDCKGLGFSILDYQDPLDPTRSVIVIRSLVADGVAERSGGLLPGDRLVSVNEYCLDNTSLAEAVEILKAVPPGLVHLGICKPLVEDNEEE
row,Binder,pKd
1,"TASPAKETSF [SLC2A7, Q6PXP3]",below the threshold
2,"LKVPPEERLI [CRB2, Q5IJ48]",below the threshold

# Target: LIMK2, P53671
# Experiment: holdup assay
# Set-up: key: below the threshold = too weak to quantify, mostly under pKd 3.1 to 4
# Settings: plain residues with an end cap or a label only (N-terminal biotin on a linker: ado-ado)
# Chain of LIMK2, P53671 (P53671 143-248): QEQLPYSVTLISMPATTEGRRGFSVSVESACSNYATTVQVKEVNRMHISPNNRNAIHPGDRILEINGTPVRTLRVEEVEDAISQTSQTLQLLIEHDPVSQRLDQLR
row,Binder,pKd
1,"TASPAKETSF [SLC2A7, Q6PXP3]",below the threshold
2,"LKVPPEERLI [CRB2, Q5IJ48]",below the threshold

# Target: T5, LNX2_3, Q8N448
# Experiment: holdup assay
# Set-up: key: below the threshold = too weak to quantify, mostly under pKd 3.1 to 4
# Settings: plain residues with an end cap or a label only (N-terminal biotin on a linker: ado-ado)
row,Binder,pKd
1,"TASPAKETSF [SLC2A7, Q6PXP3]",below the threshold
2,"LKVPPEERLI [CRB2, Q5IJ48]",below the threshold

# Target: T6, MPP6, Q9NZW5
# Experiment: holdup assay
# Set-up: key: below the threshold = too weak to quantify, mostly under pKd 3.1 to 4
# Settings: plain residues with an end cap or a label only (N-terminal biotin on a linker: ado-ado)
row,Binder,pKd
1,"TASPAKETSF [SLC2A7, Q6PXP3]",below the threshold
2,"LKVPPEERLI [CRB2, Q5IJ48]",3.68

# Target: PDLIM1, O00151
# Experiment: holdup assay
# Set-up: key: below the threshold = too weak to quantify, mostly under pKd 3.1 to 4
# Settings: plain residues with an end cap or a label only (N-terminal biotin on a linker: ado-ado)
# Chain of PDLIM1, O00151 (O00151 1-87): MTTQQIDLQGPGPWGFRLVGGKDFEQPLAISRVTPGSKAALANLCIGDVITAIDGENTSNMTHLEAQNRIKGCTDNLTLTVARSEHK
row,Binder,pKd
1,"TASPAKETSF [SLC2A7, Q6PXP3]",below the threshold
2,"LKVPPEERLI [CRB2, Q5IJ48]",below the threshold

# Target: T7, PDZD2_2, O15018
# Experiment: holdup assay
# Set-up: key: below the threshold = too weak to quantify, mostly under pKd 3.1 to 4
# Settings: plain residues with an end cap or a label only (N-terminal biotin on a linker: ado-ado)
row,Binder,pKd
1,"TASPAKETSF [SLC2A7, Q6PXP3]",below the threshold
2,"LKVPPEERLI [CRB2, Q5IJ48]",below the threshold

# Target: T8, RADIL, Q96JH8
# Experiment: holdup assay
# Set-up: key: below the threshold = too weak to quantify, mostly under pKd 3.1 to 4
# Settings: plain residues with an end cap or a label only (N-terminal biotin on a linker: ado-ado)
row,Binder,pKd
1,"TASPAKETSF [SLC2A7, Q6PXP3]",below the threshold
2,"LKVPPEERLI [CRB2, Q5IJ48]",below the threshold

# Target: T9, RAPGEF6, Q8TEU7
# Experiment: holdup assay
# Set-up: key: below the threshold = too weak to quantify, mostly under pKd 3.1 to 4
# Settings: plain residues with an end cap or a label only (N-terminal biotin on a linker: ado-ado)
row,Binder,pKd
1,"TASPAKETSF [SLC2A7, Q6PXP3]",below the threshold
2,"LKVPPEERLI [CRB2, Q5IJ48]",below the threshold

# Target: T10, SNTB1, Q13884
# Experiment: holdup assay
# Set-up: key: below the threshold = too weak to quantify, mostly under pKd 3.1 to 4
# Settings: plain residues with an end cap or a label only (N-terminal biotin on a linker: ado-ado)
row,Binder,pKd
1,"TASPAKETSF [SLC2A7, Q6PXP3]",3.53
2,"LKVPPEERLI [CRB2, Q5IJ48]",below the threshold

# Target: T11, SNTG1, Q9NSN8
# Experiment: holdup assay
# Set-up: key: below the threshold = too weak to quantify, mostly under pKd 3.1 to 4
# Settings: plain residues with an end cap or a label only (N-terminal biotin on a linker: ado-ado)
row,Binder,pKd
1,"TASPAKETSF [SLC2A7, Q6PXP3]",3.56
2,"LKVPPEERLI [CRB2, Q5IJ48]",below the threshold

# Target: T12, TIAM2, Q8IVF5
# Experiment: holdup assay
# Set-up: key: below the threshold = too weak to quantify, mostly under pKd 3.1 to 4
# Settings: plain residues with an end cap or a label only (N-terminal biotin on a linker: ado-ado)
row,Binder,pKd
1,"TASPAKETSF [SLC2A7, Q6PXP3]",3.63
2,"LKVPPEERLI [CRB2, Q5IJ48]",below the threshold

# Target: TJP1_3, Q07157
# Experiment: holdup assay
# Set-up: key: below the threshold = too weak to quantify, mostly under pKd 3.1 to 4
# Settings: plain residues with an end cap or a label only (N-terminal biotin on a linker: ado-ado)
# Chain of TJP1_3, Q07157 (Q07157 416-512): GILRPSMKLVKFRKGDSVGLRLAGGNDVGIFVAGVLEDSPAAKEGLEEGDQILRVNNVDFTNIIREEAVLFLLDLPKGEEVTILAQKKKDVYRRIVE
row,Binder,pKd
1,"TASPAKETSF [SLC2A7, Q6PXP3]",below the threshold
2,"LKVPPEERLI [CRB2, Q5IJ48]",below the threshold
